The values that follow come from patent US7294706.

The target in this test is FGFR2 over-expressed on CHO cells (CHO-FGFR2) and on 32D cells (32D-FGFR2) (UniProt P21803). Kind of test: competition of unlabeled protein with 125I-FGF4 (Gly79-Leu206) for CHO-FGFR2 cells, +heparin.

In the case of “FGF4 (Gly79-Leu206) N89A/K198A/K183A/K188A (from UniProt P08620 79-206) (ligand)”, the IC50 mutant/IC50 wild-type (ratio (IC50 mutant/IC50 wild-type)) was above 1000.
